Results from patent US20220169997.

Assays:
[1] = system: PR402: SP(HSA)-PTEN-L-HSA-6xHis
[2] = system: PR406: SP(HSA)-PTEN-L-cathepsin B-HSA-6xHis
[3] = system: PR405: SP(HSA)-PTEN-L-MMP2/9-HSA-6xHis
[4] = system: PR408: SP(HSA)-PTEN-L-cathepsinB**-HSA-6xHis
[5] = system: PR407: SP(HSA)-PTEN-L-cathepsin B*-HSA-6xHis

Sequence of Recombinant active MMP2 protease (Enzo cat. #BML-SE237-0010) (chain, as listed by the source): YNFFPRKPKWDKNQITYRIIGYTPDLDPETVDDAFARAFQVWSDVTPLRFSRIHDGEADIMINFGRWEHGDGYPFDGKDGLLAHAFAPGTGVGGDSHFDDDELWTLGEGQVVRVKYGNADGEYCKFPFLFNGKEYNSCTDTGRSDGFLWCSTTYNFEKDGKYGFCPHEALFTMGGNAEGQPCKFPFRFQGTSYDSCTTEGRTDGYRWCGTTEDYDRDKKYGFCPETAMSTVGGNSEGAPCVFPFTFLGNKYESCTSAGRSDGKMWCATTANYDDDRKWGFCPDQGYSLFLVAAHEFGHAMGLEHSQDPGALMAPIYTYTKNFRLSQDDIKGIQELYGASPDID

Substance	in vitro cleavage of the fusion in CHO-3E7 supernatant, WB with F-1 anti-PTEN (no cleavage) [1]	in vitro cleavage of the fusion in CHO-3E7 supernatant (0.3 µg/ml CATSB), WB with F-1 anti-PTEN (no cleavage) [2]	in vitro cleavage of the fusion in CHO-3E7 supernatant (0.3 µg/ml CATSB), WB with F-1 anti-PTEN (no cleavage) [3]	in vitro cleavage of the fusion in CHO-3E7 supernatant, WB with F-1 anti-PTEN (no cleavage) [4]	in vitro cleavage of the fusion in CHO-3E7 supernatant, WB with F-1 anti-PTEN (no cleavage) [5]	in vitro cleavage of the fusion in CHO-3E7 supernatant, WB with F-1 anti-PTEN (no cleavage) [2]	in vitro cleavage of the fusion in CHO-3E7 supernatant (20 nM MMP2, 0/4/21 h), WB with F-1 anti-PTEN [3]
Active CATSB (BioVision #7580-5)	PR402 was not appreciably cleaved by either recombinant MMP2 or CATSB	though it did not cleave PR406 (SEQ ID NO:130; cDNA SEQ ID NO:158)	PR405 (SEQ ID NO:129; cDNA SEQ ID NO:157) was not cleaved by CATSB	–	–	–	–
Recombinant active MMP2 protease (Enzo cat. #BML-SE237-0010)	PR402 was not appreciably cleaved by either recombinant MMP2 or CATSB	–	–	MMP2 did however cleave its consensus site (SEQ ID NO:165) on PR405 only	MMP2 did however cleave its consensus site (SEQ ID NO:165) on PR405 only	MMP2 did however cleave its consensus site (SEQ ID NO:165) on PR405 only	MMP2 did however cleave its consensus site (SEQ ID NO:165) on PR405 only; this cleavage released a PTEN-L-like fragment (˜70 KDa)
